# Assay results as given in article PMC6025827 (Nature structural & molecular biology, 2018).
# Biological target: the molecule itself
# Assay: crystal structure
protein,measurement,value
"miTRPV2QM (minimal rabbit TRPV2 construct with the four point mutations F470S, L505M, L508T and Q528E) (domain or fragment) LNYRKGAGASQPDLNRFDRDRLFNVVARGNPEDLAGLLEYLRRTSKYLTDSEYTEGSTGKTCLMKAVLNLQDGVNACIQPLLEIDRDSGNPQPLVNAQCTDEYYRGHSALHIAIEKRSLQCVKLLVENGANVHAKACGHFFQKNQDTCFYFGELPLSLAACTKQWDVVNYLLENPHQPASLQAQDSLGNTVLHALVMIADDSAENSALVVRMYDGLLQAGARLCPNVQLEGIPNLEGLTPLKLAAKEGKIEIFKHILQREFSAPCQSLSRKFTEWCYGPVRVSLYDLASVDSWEENSVLEIIAFHSRSPHRHRMVVLEPLNKLLQAKWDRLIPRFCFNFLCYLVYMLIFTAVAYHQPALEKQGFPPLKATAGNSMLLLGHILILLGGVYLLLGQLWYFWRRRLFIWISFMDSYSEILFLLQALLTVLSQVLCFLAIEWYLPLLVSSLVMGWTNLLYYTRGFQHTGIYSVMIEKVILRDLLRFLLVYLVFLFGFAVALVSLSREAQDEAPPYRSILDASLELFKFTIGMGELAFQEQLRFRGVVLLLLLAYVLLTYVLLLNMLIALMSETVNSVATDSWSIWKLQKAISVLEMENGYWWCRRKKQRAGVMLTVGTRPDGSPDERWCFRVGEMNWATWEQTLPRTLC",stoichiometry N,4
